Measured values from the supplement of paper PMC7125110.
± gives the standard error. For some assays here: Fewer inactive variants are shown than the library holds.

B1: glmS ribozyme (parent)
chain: AUAAAAGCGCCAGAACUACAGAAAUGUAGUUGACGAGGAGGAGGUUUAUCGAAUUUUCGGCGGAUGCCUCCAAA

Assays:
Settings in all cases: with glucosamine-6-phosphate
glucosamine-6-phosphate [1] = variants of: B1; assay: kcat; higher = faster cleavage; RNA array
In short: (§1)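 Using a hybridised Cy3 probe at 37 °C, barcoded ribozyme variants transcribed in situ by E. coli RNA polymerase on sequenced MiSeq chips were monitored across tiles imaged over ~14 h. The flow contained glucosamine-6-phosphate from 40 μM to 10 mM in HEPES/KCl/Mg(OAc)2 buffer. Signals were normalised to baseline and to non-cleaving reference variants before per-tile medians were fit to one- or two-exponential decays to yield kobs. Weighted Michaelis–Menten fits across concentrations gave kcat and KM.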

glucosamine-6-phosphate [2] = variants of: B1; assay: self-cleavage kobs at 160 uM GlcN6P; higher = faster cleavage; RNA array
In short: as §1

glucosamine-6-phosphate [3] = variants of: B1; assay: self-cleavage kobs at 2500 uM GlcN6P; higher = faster cleavage; RNA array
In short: as §1

glucosamine-6-phosphate [4] = variants of: B1; assay: self-cleavage kobs at 10000 uM GlcN6P; higher = faster cleavage; RNA array
In short: as §1

glucosamine-6-phosphate [5] = variants of: B1; assay: self-cleavage kobs at 40 uM GlcN6P; higher = faster cleavage; RNA array
In short: as §1

glucosamine-6-phosphate [6] = variants of: B1; assay: KM; higher = weaker cofactor use; RNA array
In short: as §1

glucosamine-6-phosphate [7] = variants of: B1; assay: self-cleavage kobs at 640 uM GlcN6P; higher = faster cleavage; RNA array
In short: as §1

| Variant | kcat (glucosamine-6-phosphate [1]) [s⁻¹] | self-cleavage kobs at 160 uM GlcN6P (glucosamine-6-phosphate [2]) [s⁻¹] | self-cleavage kobs at 2500 uM GlcN6P (glucosamine-6-phosphate [3]) [s⁻¹] | self-cleavage kobs at 10000 uM GlcN6P (glucosamine-6-phosphate [4]) [s⁻¹] | self-cleavage kobs at 40 uM GlcN6P (glucosamine-6-phosphate [5]) [s⁻¹] | KM (glucosamine-6-phosphate [6]) [µM] | self-cleavage kobs at 640 uM GlcN6P (glucosamine-6-phosphate [7]) [s⁻¹] |
| --- | --- | --- | --- | --- | --- | --- | --- |
| A33C C70G | < 1e-05 | < 1e-05 | < 1e-05 | < 1e-05 | – | – | – |
| G32U U49G | 5.32e-05 ± 7.1e-06 | – | 4.54e-05 ± 1.2e-05 | 4.7e-05 ± 6.6e-06 | < 1e-05 | – | – |
| G32A A52G | 0.000151 ± 1.3e-05 | – | 8.18e-05 ± 1.4e-05 | 0.000131 ± 1.5e-05 | – | 1760 ± 480 | 5.19e-05 ± 2e-05 |
| G32A A52C | < 1e-05 | – | – | < 1e-05 | < 1e-05 | 128 ± 28 | < 1e-05 |
| A36C C50U | < 1e-05 | – | – | – | < 1e-05 | – | – |
| A33U C50U G59U | 1.02e-05 ± 3e-06 | – | – | – | – | – | – |
| A33U U46C | 2.23e-05 ± 3.7e-06 | – | – | – | – | – | – |
| C34U G60C | < 1e-05 | – | – | – | < 1e-05 | – | – |
| G32A G60U | < 1e-05 | < 1e-05 | – | < 1e-05 | – | – | – |
| A36U U57A G66C | < 1e-05 | – | – | – | – | – | – |
| U31G U47A | 0.00848 ± 0.0027 | 0.000474 ± 7e-05 | 0.00332 ± 0.00063 | 0.00821 ± 0.0011 | 0.000201 ± 2.8e-05 | 2290 ± 990 | 0.00211 ± 0.00035 |
| G32U U45A | 0.00202 ± 0.00071 | 9.56e-05 ± 2.1e-05 | 0.000762 ± 0.00034 | 0.00155 ± 0.0003 | 0.000103 ± 3.9e-05 | 3440 ± 1700 | 0.000279 ± 6.8e-05 |
| G32A C61A | < 1e-05 | – | – | – | – | – | – |
| G32C G60A | < 1e-05 | – | – | – | < 1e-05 | – | – |
| G32C G37C | < 1e-05 | – | – | < 1e-05 | < 1e-05 | – | – |
| A33C C58G | 1.09e-05 ± 3.4e-06 | – | – | – | – | – | – |
| G32A U69A | 9.02e-05 ± 2.8e-05 | – | 9.73e-05 ± 1.8e-05 | 7.45e-05 ± 1.1e-05 | – | – | – |
| G32A C50U C70A | 3.48e-05 ± 1.3e-05 | – | 5.7e-05 ± 1.9e-05 | – | – | – | – |
| A33C G66A | 0.000291 ± 4.1e-05 | – | 0.00013 ± 2.3e-05 | 0.000257 ± 4.6e-05 | – | 2470 ± 580 | 6.35e-05 ± 9.2e-06 |
| A36U C67G C68G C71U | 6.17e-05 ± 1.7e-05 | – | 5.55e-05 ± 1.8e-05 | 5.06e-05 ± 1.6e-05 | 4.88e-05 ± 1.9e-05 | – | 0.000121 ± 3e-05 |

| Variant | kcat (glucosamine-6-phosphate [1]) [s⁻¹] | self-cleavage kobs at 160 uM GlcN6P (glucosamine-6-phosphate [2]) [s⁻¹] | self-cleavage kobs at 2500 uM GlcN6P (glucosamine-6-phosphate [3]) [s⁻¹] | self-cleavage kobs at 10000 uM GlcN6P (glucosamine-6-phosphate [4]) [s⁻¹] | self-cleavage kobs at 40 uM GlcN6P (glucosamine-6-phosphate [5]) [s⁻¹] | KM (glucosamine-6-phosphate [6]) [µM] | self-cleavage kobs at 640 uM GlcN6P (glucosamine-6-phosphate [7]) [s⁻¹] |
| --- | --- | --- | --- | --- | --- | --- | --- |
| C34G G38A C58A C68G | 5.13e-05 ± 7.5e-06 | – | 4.79e-05 ± 1.7e-05 | – | – | – | 5.22e-05 ± 1.6e-05 |
| G32C A53C | 3.63e-05 ± 2.4e-06 | < 1e-05 | – | – | < 1e-05 | – | < 1e-05 |
| G32C A53G | 0.000158 ± 4.6e-06 | – | 6.68e-05 ± 8.8e-06 | 0.000119 ± 1.5e-05 | – | 3340 ± 200 | 2.67e-05 ± 9.1e-06 |
| G32C A53U | 0.000101 ± 5.9e-06 | < 1e-05 | 2.59e-05 ± 6.8e-06 | 5.79e-05 ± 5e-06 | < 1e-05 | 7510 ± 930 | – |
| G35C G40U | < 1e-05 | – | < 1e-05 | < 1e-05 | < 1e-05 | – | < 1e-05 |
| G32U U55A | 0.00193 ± 0.00061 | 4.22e-05 ± 1.4e-05 | 0.000332 ± 5.9e-05 | 0.00102 ± 8.2e-05 | 2.84e-05 ± 1e-05 | 9310 ± 4500 | 0.000132 ± 2e-05 |
| G37A C71U | 0.00282 ± 0.00026 | 0.000172 ± 1.9e-05 | 0.0015 ± 0.00028 | 0.00225 ± 0.00014 | 4.51e-05 ± 4.2e-06 | 2690 ± 370 | 0.000478 ± 4.3e-05 |
| G35U G59U G66U | < 1e-05 | – | – | – | – | – | < 1e-05 |
| A33U C70G | 1.5e-05 ± 1.8e-06 | – | – | – | – | – | – |
| A33U U55C C61A | 1.69e-05 ± 5.1e-06 | – | – | – | – | – | – |
| G35U U65A | < 1e-05 | – | < 1e-05 | – | < 1e-05 | – | < 1e-05 |
| G37C G59U | 1.65e-05 ± 6.9e-06 | – | – | – | – | – | – |
| G32C U55G | 0.000137 ± 1.4e-05 | – | 2.64e-05 ± 8.4e-06 | 6.68e-05 ± 1.2e-05 | – | – | – |
| G32C U55C | 0.000106 ± 1.3e-05 | < 1e-05 | 2.78e-05 ± 1.4e-05 | 6.12e-05 ± 1.1e-05 | – | 7360 ± 1900 | – |
| G37C A53C | 1.74e-05 ± 7.2e-06 | – | – | – | – | – | – |
| G32C C61G | < 1e-05 | – | – | – | < 1e-05 | – | < 1e-05 |
| A36C C58A | 1.11e-05 ± 3.9e-06 | – | – | – | < 1e-05 | – | – |
| G32C C67G | 2.22e-05 ± 2.6e-06 | – | – | 1.85e-05 ± 8.6e-06 | – | 2060 ± 980 | – |
| A33U G41U | 2.33e-05 ± 1.9e-06 | < 1e-05 | 2.26e-05 ± 8e-06 | 2.14e-05 ± 6.8e-06 | < 1e-05 | – | – |
| G32A C58U | 6.81e-05 ± 1.1e-05 | – | 4.13e-05 ± 1.1e-05 | 6.46e-05 ± 1.3e-05 | < 1e-05 | – | 3.37e-05 ± 1.6e-05 |
